From patent US20110002929A1 (Ablynx, published 2011) come the findings set out here.

One assay addresses T1, mouse RANK-L (mouse, UniProt O35235 158-316, limits assumed).
T1 construct: also called murine RANK-L
T1 sequence (looked up): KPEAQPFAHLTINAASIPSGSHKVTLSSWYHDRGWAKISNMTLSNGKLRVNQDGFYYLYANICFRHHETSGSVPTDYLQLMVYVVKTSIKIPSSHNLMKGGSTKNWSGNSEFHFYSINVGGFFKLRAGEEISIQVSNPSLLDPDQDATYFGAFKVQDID
Description: ELISA, set-up as for human RANK-L. How it is done:
(§1) Therefore 2 μg/ml neutravidin was coated overnight at 4° C. The plates were washed 5 times with 300 μl PBS and then blocked with […] 1% casein/PBS for 2 hours at room temperature. […] After extensive washing with PBS, varying concentrations of Nanobodies starting from 500 nM to 160 pM diluted in 1% casein/PBS were added to the wells and the plates were incubated for 1 hour at room temperature. Bound Nanobodies were detected by subsequent incubations of a primary mouse anti-myc antibody and a secondary anti mouse-HRP conjugate (DAKO, Glostrup, Denmark) and using TMB-H2O2 (Pierce, Rockford, Ill., USA) substrate cocktail. The reaction was stopped with H₂SO₄ and the OD was read at 450 nm.

In assay [1] the target is T2, human RANK-L (human, UniProt O14788 140-317, limits assumed).
T2 construct: Soluble protein, used coated, biotinylated or labelled in ELISA, AlphaScreen, FMAT and Biacore; also called hRANK-L; soluble human RANK-L
T2 sequence (looked up): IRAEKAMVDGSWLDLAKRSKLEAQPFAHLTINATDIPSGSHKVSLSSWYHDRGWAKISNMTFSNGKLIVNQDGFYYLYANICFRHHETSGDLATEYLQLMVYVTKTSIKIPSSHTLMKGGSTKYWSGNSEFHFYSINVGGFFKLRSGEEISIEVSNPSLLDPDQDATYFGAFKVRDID
Description: ELISA (ED50), biotin-hRANK-L on neutravidin. Here is the method:
as §1
For orientation: An ELISA detects its analyte on a solid surface through an enzyme-linked reagent.

Assay [2] has as its target T2, human RANK-L. Description: AlphaScreen, biotin-hRANK-L / RANK-huFc beads. How it is done: To this mixture, the RANK acceptor beads and the streptavidin donor beads were added and further incubated for 1 hour at room temperature. Fluorescence was measured by reading plates on the EnVision Multilabel Plate Reader (Perkin Elmer) using an excitation wavelength of 680 nm and an emission wavelength of 520 nm.
In general terms: In Alpha technology, singlet oxygen from a donor bead excites a nearby acceptor bead.

Assay [3] has as its target T2, human RANK-L. As to the kind of experiment: AlphaScreen, biotin-hRANK-L / RANK-huFc beads. This is another data set of the same source.
For assay [4], the target named is T3, human RANK-L, full length, membrane-bound, expressed on HEK293T cells (human, UniProt O14788 1-317).
T3 construct: whole, on cells; also called hRANK-L
T3 sequence (looked up): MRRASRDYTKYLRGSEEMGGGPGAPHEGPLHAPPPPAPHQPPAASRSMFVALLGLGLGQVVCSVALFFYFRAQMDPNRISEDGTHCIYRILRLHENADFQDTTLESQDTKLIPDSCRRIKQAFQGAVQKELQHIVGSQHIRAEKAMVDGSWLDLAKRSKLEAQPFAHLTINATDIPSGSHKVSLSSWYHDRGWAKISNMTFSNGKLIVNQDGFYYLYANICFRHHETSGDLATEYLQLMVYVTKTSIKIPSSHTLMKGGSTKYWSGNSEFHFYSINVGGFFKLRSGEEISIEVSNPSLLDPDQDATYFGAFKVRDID
Description: FACS, HEK293T with human RANK-L, 16 pM Nanobody. How it is done:
(§2) Human embryonic kidney cells (HEK293T) were grown in Dulbecco's modified Eagles's medium supplemented with 10% fetal bovine serum (FBS), […] L-glutamine, 0.4 mM sodium pyruvate. […] After 48 hours, transfected cells were subjected to FACS analysis. […] Then cells were washed three times with FACS buffer. Bound Nanobodies were detected by subsequent incubations of a primary mouse anti Myc antibody (30 min at 4° C. (2 μg/ml)) and a second incubation with goat anti mouse-Phycoerythrin (PE) (Jackson Laboratories) for another 30 min at 4° C. Finally, after washing, the cells were resuspended in PBS+10% FBS+TO-PRO®-3 (5 nM) (Molecular Probes®, Invitrogen, Merelbeke, Belgium) and cell surface fluorescence expressed as mean PE fluorescence, was measured using flow cytometry.
Background: Flow cytometry measures light scatter and fluorescence of single cells or particles in a stream.

The target of assay [5] is T3, human RANK-L, full length, …. Description: FACS, HEK293T with human RANK-L, 80 pM Nanobody. How it is done:
as §2

Assay [6] shares this target. As to the kind of experiment: FACS, HEK293T with human RANK-L, 3.2 pM Nanobody. Here is the method:
as §2

Assay [7] shares this target. Description: FACS, HEK293T with human RANK-L, 400 pM Nanobody. How it is done:
as §2

Assay [8] shares this target. Description: FACS, HEK293T with human RANK-L, 2000 pM Nanobody. Here is the method:
as §2

The target in another assay is T4, TNFα (UniProt P01375 77-233).
T4 construct: also called TNF-alpha
T4 sequence (P01375 77-233 limits assumed): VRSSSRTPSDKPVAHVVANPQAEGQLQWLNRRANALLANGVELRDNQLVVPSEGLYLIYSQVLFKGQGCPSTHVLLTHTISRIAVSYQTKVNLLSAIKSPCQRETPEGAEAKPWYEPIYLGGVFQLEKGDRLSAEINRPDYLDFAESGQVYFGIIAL
Description: competition ELISA on RANK-L-coated plates, 1 nM Nanobody preincubated with the ligand.

Another assay addresses T5, CD40 ligand (UniProt P29965 113-261, limits assumed).
T5 sequence (looked up): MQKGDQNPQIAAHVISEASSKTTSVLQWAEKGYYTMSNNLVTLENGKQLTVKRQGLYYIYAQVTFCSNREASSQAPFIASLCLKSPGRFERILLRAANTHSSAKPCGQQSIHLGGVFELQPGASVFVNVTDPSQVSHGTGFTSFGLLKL
The assay is described as above.

The next assay addresses T6, TRAIL (UniProt P50591 114-281, limits assumed).
T6 construct: also called tumor necrosis factor-related apoptosis inducing ligand
The description is as above.

Assay [9] deals with T2, human RANK-L. As to the kind of experiment: AlphaScreen, biotin-hRANK-L / RANK-huFc beads. This is another data set of the same source.
The target of assay [10] is T2, human RANK-L. As to the kind of experiment: AlphaScreen, biotin-hRANK-L / RANK-huFc beads. The source holds these as a separate data set.
The target in assay [11] is T2, human RANK-L. As to the kind of experiment: FMAT, ALEXA647-hRANK-L / RANK on HEK293T cells.
For assay [12], the target named is T2, human RANK-L. As to the kind of experiment: SPR Biacore 3000, hRANK-L on CM5, 100 nM Nanobody. Here is the method:
(§3) Binding kinetics of the humanized versions of Nanobodu RANL13 were also analysed by Surface Plasmon Resonance (Biacore 3000). […] Nanobody binding was assessed at one concentration (100 nM). Each Nanobody was injected for 4 minutes at a flow rate of 45 μl/min to allow binding to chip-bound antigen. Next, binding buffer without Nanobody was sent over the chip at the same flow rate to allow spontaneous dissociation of bound Nanobody.

For assay [13], the target named is T2, human RANK-L. Description: SPR Biacore 3000, hRANK-L on CM5, 100 nM Nanobody; only indicative (one concentration). How it is done: as §3
For assay [14], the target named is T2, human RANK-L. Description: AlphaScreen, biotin-hRANK-L / RANK-huFc beads. The source holds these as a separate data set.
Assay [15] has as its target T2, human RANK-L. Description: FMAT, ALEXA647-hRANK-L / RANK on HEK293T cells. This is another data set of the same source.

T6 sequence (P50591 114-281 limits assumed): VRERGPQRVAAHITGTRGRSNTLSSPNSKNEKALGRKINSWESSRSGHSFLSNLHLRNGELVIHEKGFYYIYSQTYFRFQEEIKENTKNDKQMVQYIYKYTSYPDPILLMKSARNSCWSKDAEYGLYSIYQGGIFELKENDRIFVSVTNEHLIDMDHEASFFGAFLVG

B1: RANKL6 (VHH)
VHH: EVQLVESGGGLMQTGGSLRLSCAASGVTYSYYTASWFRQAPGKEREFVAAISPSGNTYYADSVKGRFTISRDNGKHTMYLQMNSLNPEDTAVYFCAIRATDSIYYASSYRHWGQGTQVTVSS
notes: not shown: c-myc and His6 tags
Consider B1, for which the binding result with mouse RANK-L is reported as “no binding (tested: 500 nM to 160 pM)”; in the assay with TNFα, “no binding (tested: approximately 100 nM)”; with CD40 ligand, “no binding (tested: approximately 100 nM)”; with TRAIL, “no binding (tested: approximately 100 nM)”. The EC50 (in general, the concentration needed to bring the measured effect to its halfway point) with human RANK-L [1] is 0.385 nM. Moreover, the results for the IC50 with human RANK-L [2] and in the assay with human RANK-L [3] were 0.288 nM and 0.777 nM, respectively. For the same molecule, the PE mean fluorescence in [4] was determined as 434; in [5] it was 1700; in [6] it was 347; in [7], 4580; in assay [8], 12800.

B2: RANKL13hum5 (VHH)
VHH: EVQLVESGGGLVQPGGSLRLSCAASGFTFSSYPMGWFRQAPGKGREFVSSITGSGGSTYYADSVKGRFTISRDNAKNTLYLQMNSLRPEDTAVYYCAAYIRPDTYLSRDYRKYDYWGQGTLVTVSS
In the case of B2, the concentration for half-maximal inhibition (IC50) (as a rule, the concentration that inhibits the measured activity by half) with human RANK-L [9] was 0.091 nM; in the assay with human RANK-L [10] it was 0.188 nM; in the assay with human RANK-L [11], 0.137 nM. The off-rate constant (koff) (usually a measure of how fast the partners let go of each other) with human RANK-L [12] stood at 0.00021 s⁻¹. Besides, binding with human RANK-L [13] was characterised by a dissociation constant (Kd) of 0.26 nM. Moreover, in the assay with human RANK-L [13], the on-rate (kon) (usually the rate constant with which the complex forms) amounted to 800000 M⁻¹ s⁻¹.

B3: RANKL9 (VHH)
VHH: EVQLVESGGGLVQAGGSLRLTCAASGRTFRSYAMGWFRQAPGKEREFVAAINYSGGSTNYADSVKGRFTISRDNAKNTLYLQMNSLEPEDTAVYYCAAGSGYASLSYYSTERAYTYWGQGTQVTVSS
notes: as for B1
For the molecule B3, the binding result with mouse RANK-L is “no binding (tested: 500 nM to 160 pM)”; with TNFα, “no binding (tested: approximately 100 nM)”; in the assay with CD40 ligand it was “no binding (tested: approximately 100 nM)”; with TRAIL, “no binding (tested: approximately 100 nM)”. This molecule also displayed a 50% effective concentration (EC50) with human RANK-L [1] of 0.542 nM. For the same molecule, the IC50 with human RANK-L [2] amounted to 0.137 nM; in the assay with human RANK-L [3] it was 0.341 nM; in the assay with human RANK-L [14], 0.238 nM; with human RANK-L [15], 0.13 nM. The PE mean fluorescence in [4] turned out to be 1350; in assay [5], 2280; in [6], 381; in assay [7] it was 3360; in [8], 4860.

B4: RANKL18hum6 (VHH)
VHH: EVQLVESGGGLVQPGGSLRLSCAASGRTFSRSAMGWFRQAPGKGREFVGFITGSGGTTYYADSVKGRFTISRDNAQNPVYLQMNSLRPEDTAVYYCAVYRRTYISSTYSESSEYDYWGQGTLVTVSS
Regarding B4, the IC50 is 0.138 nM in the assay with human RANK-L [9], 0.087 nM with human RANK-L [10] and 0.38 nM with human RANK-L [11]. This molecule also registered an off-rate (koff) with human RANK-L [12] of 6.72e-05 s⁻¹. For the same molecule, in the assay with human RANK-L [13], binding was characterised by a dissociation constant (Kd) of 0.16 nM. Also, the kon with human RANK-L [13] was determined as 500000 M⁻¹ s⁻¹.
